These results are taken from paper PMC11807975, “The secreted host-cell protein clusterin interacts with PmpD and promotes Chlamydia trachomatis infection” (Frontiers in Cellular and Infection Microbiology, 2024).

This data set deals with the molecule itself. The experiment in a line: native gel or EMSA; Blue Native-PAGE (Native PAGE Novex 3-12% Bis-Tris) of the SEC elution fraction of rD72 at 1.4 ml; Coomassie stain. For orientation: Mobility shift assays separate free from complexed probe on a gel.

Values joined by “and” are separate entries in the source; they are usually repeats but may differ in a detail not shown here. Equal values may be shown once.

B1: recombinant D72 (rD72), proteolytically processed fragment of Chlamydia trachomatis serovar E PmpD, residues 68-761, N-terminal 10x His-Tag (domain or fragment)
chain: DSQAEGQYRLIVGDPSSFQEKDADTLPGKVEQSTLFSVTNPVVFQGVDQQDQVSSQGLICSFTSSNLDSPRDGESFLGIAFVGDSSKAGITLTDVKASLSGAALYSTEDLIFEKIKGGLEFASCSSLEQGGACAAQSILIHDCQGLQVKHCTTAVNAEGSSANDHLGFGGGAFFVTGSLSGEKSLYMPAGDMVVANCDGAISFEGNSANFANGGAIAASGKVLFVANDKKTSFIENRALSGGAIAASSDIAFQNCAELVFKGNCAIGTEDKGSLGGGAISSLGTVLLQGNHGITCDKNESASQGGAIFGKNCQISDNEGPVVFRDSTACLGGGAIAAQEIVSIQNNQAGISFEGGKASFGGGIACGSFSSAGGASVLGTIDISKNLGAISFSRTLCTTSDLGQMEYQGGGALFGENISLSENAGVLTFKDNIVKTFASNGKILGGGAILATGKVEITNNSEGISFTGNARAPQALPTQEEFPLFSKKEGRPLSSGYSGGGAILGREVAILHNAAVVFEQNRLQCSEEEATLLGCCGGGAVHGMDSTSIVGNSSVRFGNNYAMGQGVSGGALLSKTVQLAGNGSVDFSRNIASLGGGALQASEGNCELVDNGYVLFRDNRGRVYGGAISCLRGDVVISGNKGRVEFKDNIATRLYVEETVEKVEEVEPAPEQKDNNELSFLGRAEQSFITAANQA
notes: In solution a high-molecular-weight oligomer (720-1048 kDa by Blue Native-PAGE, calculated 10- to 15-mer); also called rPmpD; His-PmpD; source: E. coli Origami, purified (Ni-NTA agarose, dialysed in PBS); not shown: 10xHis, N-terminal, kept; copies: 10-15
As for B1, the stoichiometry N (as a rule, the number of molecules, sites or subunits per partner or assembly) is 10 and 15.
